From patent US20260125460A1 (Eli Lilly, published 2026)

Assays:
cynomolgus monkey IL-34 [1] = molecular target: T1, cynomolgus monkey IL-34 (cynomolgus monkey, UniProt G7Q1L3 21-242); experiment: SPR, BIAcore 8K, 37 C; antibody captured on Protein A chip, IL-34 in flow; 1:1 fit; average of at least three experiments
T1 construct: Biotinylated in the displacement ELISA; also called cyno IL-34
T1 sequence: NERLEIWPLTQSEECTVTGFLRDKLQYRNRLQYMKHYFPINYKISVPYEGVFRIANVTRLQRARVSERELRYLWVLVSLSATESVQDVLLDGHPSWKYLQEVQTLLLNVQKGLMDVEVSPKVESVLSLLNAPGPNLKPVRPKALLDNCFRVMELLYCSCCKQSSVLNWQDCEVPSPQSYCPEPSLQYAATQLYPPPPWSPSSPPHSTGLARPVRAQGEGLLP
Procedure: (§1) Binding affinity of anti-IL-34 monoclonal antibodies of the present disclosure to human and/or cynomolgus monkey (cyno) IL-34 may be determined by methods known in the art. […] For each cycle, 200 μL IL-34 is flowed over the immobilized antibody at 100 μL/minute, and then dissociated for 20 minutes. The chip surface is regenerated with 50 μL of glycine buffer at pH 1.5 at a flow rate of 100 μL/minute. The data are fit to a 1:1 Langmiur binding mode to derive kon, koff and to calculate KD.

human IL-34 [2] = molecular target: T2, human IL-34 (human, UniProt Q6ZMJ4 21-242); experiment: as above
T2 construct: It was biotinylated in the displacement ELISA; also called hIL-34; h IL-34
T2 sequence: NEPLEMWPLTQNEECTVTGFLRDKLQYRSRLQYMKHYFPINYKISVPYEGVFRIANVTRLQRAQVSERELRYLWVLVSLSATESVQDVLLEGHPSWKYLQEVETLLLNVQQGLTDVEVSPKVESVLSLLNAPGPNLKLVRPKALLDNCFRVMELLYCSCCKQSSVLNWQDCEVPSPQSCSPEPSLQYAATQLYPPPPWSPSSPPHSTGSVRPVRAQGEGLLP
Procedure: as §1

human IL-34 [3] = molecular target: T2, human IL-34; experiment: cell-based or functional assay
cynomolgus monkey IL-34 [4] = molecular target: T1, cynomolgus monkey IL-34; experiment: competition ELISA; displacement of biotinylated cyno IL-34 from plate-bound cynomolgus CSF1R ECD-Fc
Procedure: (§2) CSF1R extracellular domain proteins (hCSF1R_Fc commercially available from R&D Cat #329-MR, cynomolgus CSF1R ECD-Fc (AAA is a linker between CSF1R extracellular domain and Fc) (SEQ ID NO: 34)) can be bound to an ELISA plate at concentrations of 30 nM in order to capture soluble biotinylated IL-34 and allowed to bind for one hour. After washing and blocking plate, biotinylated IL-34 may be added, then detected via streptavidin conjugated peroxidase. Concentrations of labeled IL-34 near the 80% binding level (EC₈₀) (3.7 nM) may be used in conjunction with a range of antibody concentrations (0-100 nM) to determine concentration of antibody required to displace IL-34 from CSF1R. After 1 hr incubation, IL-34 bound to CSF1R is detected via streptavidin conjugated peroxidase. The antibodies are assayed (n=2) and the average and standard deviation at each concentration are calculated. The potency of an antibody to displace IL-34 from CSF1R is reported as IC₅₀ (nM) with the calculated confidence interval (CI) in Table 4 and Table 5.

human IL-34 [5] = molecular target: T2, human IL-34; experiment: competition ELISA; displacement of biotinylated human IL-34 (3.7 nM) from plate-bound hCSF1R_Fc
Procedure: as §2

B1: Antibody 1 (antibody, human IgG4 S228P, kappa, F234A L235A, V domains shown)
VH: EVQLLESGGGLVQPGGSLRLSCAASGFAFSNYAMSWVRQAPGKGLEWVSAISASGGKTYYADSVKGRFTISRDNSKNTLYLQMNSLRAEDTAVYYCAKRGYLWHAFDHWGRGTLVTVSS
VL: EIVLTQSPGTLSLSPGERATLSCRASQSVYSSYLAWYQQKPGQAPRLLIYGASSRATGIPDRFSGSGSGTDFTLTISRLEPEDFAVYYCQVVGSSPPFTFGGGTKVEIKR
notes: Human anti-human IL-34 antibody; IgG4 PAA hinge/Fc without the C-terminal lysine; also called Exemplified Antibody 1; exemplified antibody 1
**Q.** With B1 as the binder, how does the Kd (cynomolgus monkey IL-34 [1]) read?
**A.** 0.039 nM

**Q.** And the koff (cynomolgus monkey IL-34 [1])?
**A.** 0.00031 s⁻¹

**Q.** What about the kon (cynomolgus monkey IL-34 [1]) of the same binder?
**A.** 8.1e+06 M⁻¹ s⁻¹

**Q.** And the Kd (human IL-34 [2])?
**A.** 0.0338 nM

**Q.** And the koff (human IL-34 [2])?
**A.** 0.00019 s⁻¹

**Q.** What about the kon (human IL-34 [2]) of the same binder?
**A.** 5.6e+06 M⁻¹ s⁻¹

**Q.** What about the “IC50 (ug/ml), neutralization of human IL-34 (100 ng/ml) induced luciferase reporter activity in hCSF1R expressing 293 SRE cells” value (human IL-34 [3]) of the same binder?
**A.** 0.0533 µg/mL

**Q.** What about the IC50 (cynomolgus monkey IL-34 [4]) of the same binder?
**A.** 1.41 nM

**Q.** And the IC50 (human IL-34 [5])?
**A.** 0.0657 nM
